# Substitutions are numbered along the chain they refer to.
# B1: hz137G11D10-2.2 (antibody, human IgG1, kappa, V domains shown)
# VH: QVQLQESGPGLVKPSQTLSLTCTVSGYSITSDYAWNWIRQHPGKGLEWIGYITYSASTSYNPSLKSRVTISRDTSKNQFFLKLSSVTAADTAVYYCARGAGTYYFDYWGQGTLVTVSS
# VL: DIQMTQSPSSLSASVGDRVTITCITSTDIDEDMNWYQQKPGKAPKLLIYEDNSLRPGVPSRFSGSGYGTDFTLTISSLQPEDFATYYCLQTNNLPLTFGQGTKVEIKR
# notes: Humanized, human IgG1/kappa
# B2: hz137G11D10-1.1 (antibody, human IgG1, kappa, V domains shown)
# VH: B1 VH with F80S
# VL: ETTLTQSPAFMSATPGDKVNISCITSTDIDEDMNWYQQKPGEAAKLIISEDNSLRPGIPPRFSSSGYGTDFTLTINNIESEDAAYYFCLQTNNLPLTFGQGTKVEIKR
# notes: Humanized, human IgG1/kappa
# B3: hz137G11D10-3.1 (antibody, human IgG1, kappa, V domains shown)
# VH: B1 VH with F80S
# VL: B1 VL with Y49S, G64S
# notes: Humanized, human IgG1/kappa
# B4: hz137G11D10-3.2 (antibody, human IgG1, kappa, V domains shown)
# VH: B1 VH
# VL: B1 VL with Y49S, G64S
# notes: Humanized, human IgG1/kappa
# B5: hz137G11D10-1.2 (antibody, human IgG1, kappa, V domains shown)
# VH: B1 VH
# VL: B2 VL
# notes: Humanized, human IgG1/kappa
# B6: ch135A2B10 (antibody, human IgG1, kappa, V domains shown)
# VH: DVKLVESGGGLVTPEGSLKLSCAASGFAFSTYGMAWVRQTPEKRLEWVASIHKGGFSTYYPDNVKGRFTISRDNDKNTLYLQMSSLKSEDTAMYYCIRHDWDGAMDYWGQGTSVTVSS
# VL: DIVLTQSPSSMYASLGERVTITCKASQDINSYLNWFQQKPGKSPKTLIYRANRLVDGVPSRFSGSGSGQDYSLTISSLEYEDLGIYYCLQFDEFPYTFGGGTKLEIKR
# notes: also called chimeric antibody of m135A2B10
# B7: ch29H5D8 (antibody, human IgG1, kappa, V domains shown)
# VH: EVQLQQSGAELARPGASVKLSCKASGYTFTNYGISWVKQRTGQGLEWIGEIYPRSVNTYYSAKFKGKATLTADKSSSTAYMELRSLTSEDSAVYFCARHYYGSSLDYWGQGTTLTVSS
# VL: DIVLTQSPASLSVATGEKVTIRCITSSDIEDDMNWYQQKPGEPPKLLISEGNSLRPGVPSRFSSSGYGTDFVFTIENTLSEDVADYYCLQSDNIFTFGSGTKLEIKR
# notes: also called chimeric antibody of m29H5D8
# B8: hz135A2B10-1.2 (antibody, human IgG1, kappa, V domains shown)
# VH: QVQLVESGGGLVQPGGSLRLSCAASGFAFSTYGMAWVRQAPGKGLEWVASIHKGGFSTYYPDNVKGRFTISRDNDKNSLYLQMNSLRAEDTAVYYCIRHDWDGAMDYWGQGTLVTVSS
# VL: DIQMTQSPSSLSASVGDRVTITCKASQDINSYLNWYQQKPGKAPKTLIYRANRLVDGVPSRFSGSGSGQDYTLTISSLQPEDFATYYCLQFDEFPYTFGQGTKVEIKR
# notes: Humanized, human IgG1/kappa
# B9: hz135A2B10-1.3 (antibody, human IgG1, kappa, V domains shown)
# VH: B8 VH with G44R
# VL: B8 VL
# notes: Humanized, human IgG1/kappa
# B10: ch137G11D10 (antibody, human IgG1, kappa, V domains shown)
# VH: DVQLQESGPGLVKPSQSLSLTCTVTGYSITSDYAWNWIRQFPGNKLEWMGYITYSASTSYNPSLKSRISITRDTSKNQFFLQLNSVTTEDTATYYCARGAGTYYFDYWGQGSTLTVSS
# VL: DIVLTQSPASLSVATGEKVTIRCITSTDIDEDMNWYQQKPGEPPKLLISEDNSLRPGVPSRFSSSGYGTDFVLTIENTLSEDVADYYCLQTNNLPLTFGAGTKLEIKR
# notes: also called chimeric antibody of m137G11D10
# B11: hz29H5D8-3.1 (antibody, human IgG1, kappa, V domains shown)
# VH: QVQLVQSGAEVKKPGSSVKVSCKASGYTFTNYGISWVRQAPGQGLEWMGEIYPRSVNTYYAQKFQGRVTITADKSTSTAYMELSSLRSEDTAVYYCARHYYGSSLDYWGQGTLVTVSS
# VL: DIQMTQSPSSLSASVGDRVTITCITSSDIEDDMNWYQQKPGKAPKLLISEGNSLRPGVPSRFSSSGYGTDFTFTISSLQPEDIATYYCLQSDNIFTFGQGTKVEIKR
# notes: Humanized, human IgG1/kappa
# B12: hz29H5D8-2.1 (antibody, human IgG1, kappa, V domains shown)
# VH: B11 VH
# VL: B11 VL with S49Y
# notes: Humanized, human IgG1/kappa
# B13: ch3G9B1 (antibody, human IgG1, kappa, V domains shown)
# VH: QVQLQQSGTELARPGASVKLSCKASGYTFTSYGITWVKQRTGQGLEWIGEIYPRSGNTYFNEKFKGKATLTADKSSSTAYMELRSLTSEDSAVYFCARDRTGTGVDDYWGQGTTLTVSS
# VL: DIVLTQSPASLSMAIGEKVTIRCITNTDIDDDMSWYQQKPGEPPNLLISEGNTLRPGVPSRFSSSGYGRDFVFTIENMLSEDVADYYCLQSNNLPYTFGGGTKLEIKR
# notes: also called chimeric antibody of m3G9B1
# Assays:
# [1] = target: T1, human/cynomolgus monkey ROR1 protein (Acro Biosystems, Cat. No.: RO1-H522y) (human/cynomolgus monkey, UniProt Q01973 30-403); test: SPR (Biacore), antibody captured on anti-hIgG CM5 chip, ROR1 protein as analyte, method of Example 5
# T1 construct: Bought SPR analyte
# T1 sequence (Q01973 30-403 limits assumed): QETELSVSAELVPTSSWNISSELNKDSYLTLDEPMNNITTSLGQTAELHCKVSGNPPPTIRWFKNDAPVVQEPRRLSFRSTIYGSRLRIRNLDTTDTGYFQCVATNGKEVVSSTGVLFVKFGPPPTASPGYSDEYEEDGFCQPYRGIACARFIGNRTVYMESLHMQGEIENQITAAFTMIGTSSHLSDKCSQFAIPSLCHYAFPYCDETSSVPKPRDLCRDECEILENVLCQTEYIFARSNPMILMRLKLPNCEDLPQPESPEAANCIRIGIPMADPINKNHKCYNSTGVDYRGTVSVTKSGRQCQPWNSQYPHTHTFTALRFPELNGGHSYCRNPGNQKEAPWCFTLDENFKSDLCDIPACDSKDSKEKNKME
# [2] = target: T2, ROR1 naturally expressed on human tumor cell lines (A549, Jeko-1, SW620, PA-1) (human, UniProt Q01973 30-937); test: FACS on PA-1 cells naturally expressing ROR1
# T2 construct: whole, on cells; also called cells expressing ROR1
# T2 sequence (Q01973 30-937): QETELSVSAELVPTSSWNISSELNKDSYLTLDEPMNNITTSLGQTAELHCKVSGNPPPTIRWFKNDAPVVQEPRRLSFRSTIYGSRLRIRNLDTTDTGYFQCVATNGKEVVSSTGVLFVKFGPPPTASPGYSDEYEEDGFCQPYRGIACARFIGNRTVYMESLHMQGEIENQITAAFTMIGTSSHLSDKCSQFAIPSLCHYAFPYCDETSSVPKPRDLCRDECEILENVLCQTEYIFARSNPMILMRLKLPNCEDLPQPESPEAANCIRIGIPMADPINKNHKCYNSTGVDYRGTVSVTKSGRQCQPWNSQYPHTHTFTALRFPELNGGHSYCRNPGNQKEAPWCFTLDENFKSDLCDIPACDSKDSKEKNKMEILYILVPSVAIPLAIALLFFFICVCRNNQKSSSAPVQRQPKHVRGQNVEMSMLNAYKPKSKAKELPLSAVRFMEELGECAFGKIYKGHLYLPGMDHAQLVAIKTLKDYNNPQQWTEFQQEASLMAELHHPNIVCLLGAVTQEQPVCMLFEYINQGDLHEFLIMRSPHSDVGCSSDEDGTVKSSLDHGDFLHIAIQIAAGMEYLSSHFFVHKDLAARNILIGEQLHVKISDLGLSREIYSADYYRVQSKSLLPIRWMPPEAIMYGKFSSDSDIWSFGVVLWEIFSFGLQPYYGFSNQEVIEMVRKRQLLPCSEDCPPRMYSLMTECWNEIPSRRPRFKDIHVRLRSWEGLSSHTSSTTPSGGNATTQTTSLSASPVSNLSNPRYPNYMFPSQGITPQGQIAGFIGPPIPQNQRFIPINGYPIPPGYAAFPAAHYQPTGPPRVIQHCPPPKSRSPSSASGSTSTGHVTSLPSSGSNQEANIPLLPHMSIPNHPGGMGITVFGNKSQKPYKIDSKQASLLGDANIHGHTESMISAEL
# [3] = target: T2, ROR1 naturally expressed on human tumor …; test: FACS on SW620 cells naturally expressing ROR1
# [4] = target: T2, ROR1 naturally expressed on human tumor …; test: FACS on Jeko-1 cells naturally expressing ROR1
# [5] = target: T2, ROR1 naturally expressed on human tumor …; test: FACS on Jeko-1 cells naturally expressing ROR1; remark: listed apart in the source
# [6] = target: T2, ROR1 naturally expressed on human tumor …; test: FACS on SW620 cells naturally expressing ROR1; remark: listed apart in the source
# [7] = target: T2, ROR1 naturally expressed on human tumor …; test: FACS on A549 cells naturally expressing ROR1
# [8] = target: T1, human/cynomolgus monkey ROR1 protein …; test: SPR (Biacore), antibody captured on anti-hIgG CM5 chip, ROR1 protein as analyte, 1:1 model
# [9] = target: T2, ROR1 naturally expressed on human tumor …; test: FACS on PA-1 cells naturally expressing ROR1; remark: listed apart in the source
# [10] = target: T2, ROR1 naturally expressed on human tumor …; test: FACS on Jeko-1 cells naturally expressing ROR1; remark: listed apart in the source
# [11] = target: T2, ROR1 naturally expressed on human tumor …; test: FACS on SW620 cells naturally expressing ROR1; remark: listed apart in the source
# [12] = target: T2, ROR1 naturally expressed on human tumor …; test: FACS on PA-1 cells naturally expressing ROR1; remark: listed apart in the source
# [13] = target: T2, ROR1 naturally expressed on human tumor …; test: FACS on SW620 cells naturally expressing ROR1; remark: listed apart in the source
# [14] = target: T2, ROR1 naturally expressed on human tumor …; test: FACS on Jeko-1 cells naturally expressing ROR1; remark: listed apart in the source
Binder,Kd [1] [nM],koff [1] [s⁻¹],kon [1] [M⁻¹ s⁻¹],EC50 [2] [nM],Top (MFI) [2] [MFI],EC50 [3] [nM],Top (MFI) [3] [MFI],EC50 [4] [nM],Top (MFI) [4] [MFI],EC50 [5] [nM],Top (MFI) [5] [MFI],EC50 [6] [nM],Top (MFI) [6] [MFI],EC50 [7] [nM],Top (MFI) [7] [MFI],Kd [8] [nM],koff [8] [s⁻¹],kon [8] [M⁻¹ s⁻¹],further results
B1,0.343,0.000811,2.37e+06,0.061,233000,0.009,28500,0.012,86100,–,–,–,–,–,–,–,–,–,–
B2,0.145,0.000539,3.72e+06,0.075,244000,0.013,32600,0.015,93200,–,–,–,–,–,–,–,–,–,–
B3,0.172,0.000492,2.86e+06,0.063,231000,0.009,30900,0.012,87000,–,–,–,–,–,–,–,–,–,–
B4,0.16,0.000469,2.92e+06,0.054,225000,0.011,30700,0.012,86800,–,–,–,–,–,–,–,–,–,–
B5,0.105,0.000414,3.94e+06,0.092,248000,0.013,31500,0.016,92500,–,–,–,–,–,–,–,–,–,–
B6,–,–,–,–,–,–,–,–,–,0.037,71900,0.06,29800,0.094,87800,0.586,0.000551,941000,–
B7,–,–,–,–,–,–,–,–,–,0.011,70400,0.01,27000,0.016,78500,0.669,0.00248,3.7e+06,–
B8,0.569,0.000596,1.05e+06,–,–,–,–,–,–,–,–,–,–,–,–,–,–,–,EC50 [9]: 0.217 nM; Top (MFI) [9]: 238000 MFI; EC50 [10]: 0.022 nM; Top (MFI) [10]: 89700 MFI; EC50 [11]: 0.034 nM; Top (MFI) [11]: 30400 MFI
B9,0.575,0.000567,985000,–,–,–,–,–,–,–,–,–,–,–,–,–,–,–,EC50 [9]: 0.192 nM; Top (MFI) [9]: 249000 MFI; EC50 [10]: 0.024 nM; Top (MFI) [10]: 86700 MFI; EC50 [11]: 0.047 nM; Top (MFI) [11]: 29900 MFI
B10,–,–,–,–,–,–,–,–,–,0.012,71100,0.01,27300,0.02,82800,0.61,0.00315,5.16e+06,–
B11,0.112,0.000218,1.95e+06,–,–,–,–,–,–,–,–,–,–,–,–,–,–,–,EC50 [12]: 0.092 nM; Top (MFI) [12]: 247000 MFI; EC50 [13]: 0.011 nM; Top (MFI) [13]: 30700 MFI; EC50 [14]: 0.014 nM; Top (MFI) [14]: 87700 MFI
B12,0.589,0.000925,1.57e+06,–,–,–,–,–,–,–,–,–,–,–,–,–,–,–,EC50 [12]: 0.126 nM; Top (MFI) [12]: 239000 MFI; EC50 [13]: 0.015 nM; Top (MFI) [13]: 28600 MFI; EC50 [14]: 0.015 nM; Top (MFI) [14]: 85000 MFI
B13,–,–,–,–,–,–,–,–,–,0.01,61100,0.048,20400,0.03,65200,27.1,0.0639,2.36e+06,–
